Results reported in paper PMC2879525.

Molecular target: rLdACT (Leishmania actin) (Leishmania donovani, UniProt Q86M27 1-376)
Experiment: EMSA

B1: 30 bp DNA probe (dsDNA)
DNA 1: GCGGCCGCATGGCTGACAACGAGCAGAGCT
DNA 2: AGCTCTGCTCGTTGTCAGCCATGCGGCCGC
binding result: binds
